Experiments:
[1] = biological target: T1, Sc.Ara1 (Saccharomyces cerevisiae, UniProt P38115); test: dehydrogenase activity, microplate; assay type: biochemical; settings: NAD+ or NADP+, 10 mM cofactor, 10 mM sugar; 37 °C
T1 construct: N-terminal His tag (pET28a)

[2] = biological target: T2, Bm.Fdh (Burkholderia multivorans, UniProt A0A0H3KNE7); test: dehydrogenase activity, microplate; assay type: biochemical; settings: NAD+ or NADP+, 10 mM cofactor, 10 mM sugar; 37 °C
T2 construct: gene BMULJ_04919; N-terminal His tag (pET28a)
T2 sequence (A0A0H3KNE7 whole entry): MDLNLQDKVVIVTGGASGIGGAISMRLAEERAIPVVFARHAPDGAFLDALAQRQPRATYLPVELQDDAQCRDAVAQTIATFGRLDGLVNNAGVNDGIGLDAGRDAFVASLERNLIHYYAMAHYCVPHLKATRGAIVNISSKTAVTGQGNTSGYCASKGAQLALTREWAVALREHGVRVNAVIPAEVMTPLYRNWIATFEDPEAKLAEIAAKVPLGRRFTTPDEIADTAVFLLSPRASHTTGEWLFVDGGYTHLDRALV

[3] = biological target: T3, Pc.TadH (Trinickia caryophylli, UniProt A0A1X7DDC2); test: dehydrogenase activity, microplate; assay type: biochemical; settings: NAD+ or NADP+; 37 °C
T3 construct: gene SAMN06295900_10348; N-terminal His tag (pET28a)
T3 sequence (A0A1X7DDC2 1-334): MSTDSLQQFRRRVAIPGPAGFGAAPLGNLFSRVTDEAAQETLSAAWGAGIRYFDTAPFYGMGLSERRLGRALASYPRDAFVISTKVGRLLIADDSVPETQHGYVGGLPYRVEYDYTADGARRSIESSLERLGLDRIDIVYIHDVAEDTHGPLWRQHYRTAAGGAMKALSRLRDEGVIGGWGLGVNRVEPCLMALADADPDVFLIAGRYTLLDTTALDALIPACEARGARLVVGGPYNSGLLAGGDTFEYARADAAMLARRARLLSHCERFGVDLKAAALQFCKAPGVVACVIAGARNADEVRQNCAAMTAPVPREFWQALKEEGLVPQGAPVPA

[4] = biological target: T4, Ec.FucO (Escherichia coli, UniProt P0A9S1); test: ethylene glycol dehydrogenase activity in protein extract; empty-plasmid extract inactive; assay type: biochemical; settings: 50 mM ethylene glycol; NAD+
T4 construct: expressed from pEXT20 in E. coli TW64; protein extract
T4 sequence (P0A9S1 1-382): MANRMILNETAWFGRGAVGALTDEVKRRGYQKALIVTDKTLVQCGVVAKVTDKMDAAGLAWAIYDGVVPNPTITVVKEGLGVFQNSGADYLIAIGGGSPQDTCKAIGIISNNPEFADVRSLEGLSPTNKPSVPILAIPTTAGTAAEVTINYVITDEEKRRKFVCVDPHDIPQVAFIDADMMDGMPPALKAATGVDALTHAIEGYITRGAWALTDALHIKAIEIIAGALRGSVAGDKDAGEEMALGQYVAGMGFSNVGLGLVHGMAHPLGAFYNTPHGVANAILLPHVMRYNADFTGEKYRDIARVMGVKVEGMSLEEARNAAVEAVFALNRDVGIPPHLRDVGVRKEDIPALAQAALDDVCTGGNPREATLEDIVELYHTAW

[5] = biological target: T5, Go.Adh (Gluconobacter oxydans, UniProt Q5FU50); test: as above; assay type: biochemical; settings: 50 mM ethylene glycol; NAD+
T5 construct: gene GOX0313; expressed from pEXT20 in E. coli TW64; protein extract
T5 sequence (Q5FU50 1-343): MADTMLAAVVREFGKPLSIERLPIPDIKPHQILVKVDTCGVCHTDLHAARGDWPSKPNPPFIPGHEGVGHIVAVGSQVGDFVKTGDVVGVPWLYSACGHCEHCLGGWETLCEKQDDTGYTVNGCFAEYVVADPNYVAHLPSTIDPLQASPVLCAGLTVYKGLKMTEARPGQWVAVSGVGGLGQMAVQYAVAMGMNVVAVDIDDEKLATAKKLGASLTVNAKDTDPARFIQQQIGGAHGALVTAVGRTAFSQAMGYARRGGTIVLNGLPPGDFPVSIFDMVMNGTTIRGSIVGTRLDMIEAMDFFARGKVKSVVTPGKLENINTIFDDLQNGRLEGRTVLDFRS

[6] = tested on: T6, Hh.AraD; settings: 37 °C
T6 construct: gene E2K99_19880

[7] = substrate: O=C(O)[C@@H](O)[C@H](O)CO; test: purified protein; settings: 37 °C
[8] = substrate: C[C@H](O)[C@H]1OC(=O)[C@@H](O)[C@@H]1O; test: lactonase kinetics, Michaelis-Menten fit; assay type: biochemical, Thermogutta terrifontis; settings: 37 °C
[9] = substrate: O=C1OC[C@@H](O)[C@@H]1O; test: lactonase kinetics, Michaelis-Menten fit; assay type: biochemical, Thermogutta terrifontis; settings: 37 °C

In the case of `O=C[C@@H](O)[C@H](O)CO` [D-threose], the specific activity [1] is reported as “Sc.Ara1, Pc.TadH and Bm.Fdh displayed measurable activity on D-threose”, the specific activity [2] is reported as “Sc.Ara1, Pc.TadH and Bm.Fdh displayed measurable activity on D-threose” and the “specific activity (no saturation up to 50 mM)” value [3] is reported as “Sc.Ara1, Pc.TadH and Bm.Fdh displayed measurable activity on D-threose”.

`OCCO` [ethylene glycol] was tested, and the activity [4] was “all candidate enzymes were active on EG” and the activity [5] was “all candidate enzymes were active on EG”.

`O=C(O)[C@@H](O)[C@H](O)CO` [D-threonate] was tested, and the Km [6] was 1210 µM.

B1: Aa.AraD (Paracidovorax avenae ATCC 19860) (protein)
chain: MSTDALATQSLLILNDRDNVAVARTELGAGMELRLAGGEVLEVMATVPAGHKIALRPIAKGDAVLKYGQVIGAASTPIGAGEHVHVHNVEMGDSSPTHLVGRAYVPTDPVEQPATFMGYVRADGRVGTRNYIGVISSVNCSATVCKAIAQAFTGPALGAYPGVDGVVAITHGTGCGMSGEGEGIELLRRTLSGYIAHPNFAAVLVIGLGCEVNQVEGLTGRLPLPEGRVRTMTIQDAGGTREAIAQGIDIVRDMAAAASGARRTQVPASHLVVGLQCGGSDGYSGISANPVLGAAVDMLVRHGGTAILSETPEIYGAEHLLTARAASAEVAERLMARLAWWEAYTQRNGANMNNNPSPGNKAGGITTILEKSLGAVAKGGGSGLMDVVEYAQPVHSRGLVFMDTPGYDPVSATGQVAGGANLICFTTGRGSTYGCKPTPSLKLATNTALFRNMGMDMDFNAGDVVDGTLGIAQAGRHLFELMLATASGDRTLSETHGLGDNEFVPWQLGAVM
In the case of B1, the Km [7] is reported as 1.95 (±0.53) mM, the Vmax [7] is reported as 0.12 µmol/min/mg and the Vmax/Km [7] is reported as 62 µL/min/mg.

B2: Tt.Lac11 (Thermogutta terrifontis) (protein)
chain: MRKLLGSSAIHVLSRRTGYGMYFLILALGVATQVVFGAEPSQNPSEKVAWIERADPGLDDLIAPDAQVEVLAEGFEWSEGPVWIPEGGYLLFSDVPKNTIYRWKEGQGIDIFLKPSGYTGFRERGGESGSNGLALDRQGRLLLCQHGDRRVARWEKGCFITLADQYEGKPLNSPNDLVVKSNGDIYFTDPPYGMTPEAQRDPNALGFCGVYRISADGKLTLLVRDMTRPNGIAFSPDEKTLYVAQSDPQRPLWMAFPVREDGTLGEGKVFFDAKPWQQSGLPGLPDGMKVDQKGNLFATGPGGVNIFRPDGTFLGRIRVKVPTANCAFGDDGSTLYITADMYLLRVKTKTKGLGF
notes: full-length with predicted N-terminal signal peptide; hexa-His tag (pET28a)
With B2 the Km [8] was 0.84 (±0.06) × 10^-3 M, the Km [9] was 2.92 (±0.13) mM and the Vmax [9] was 1.76 µmol/min/mg. It also gave a Vmax/Km [9] of 603 µL/min/mg.
